In patent publication US20250059271A1 (BARRELMAN BIOSCIENCES, published 2025) one finds OD data, which are given here for three molecules.

Positions count from the first letter of the chain named.

The target in this assay is T1, dProgastrin-SUMO protein (dog, UniProt P01353 22-104).
T1 construct: Unknown whether the listing entry 103 holds the tag; also called dProg-Sumo protein; dog progastrin His-SUMO protein; not shown: N-terminal His-SUMO tag
T1 sequence: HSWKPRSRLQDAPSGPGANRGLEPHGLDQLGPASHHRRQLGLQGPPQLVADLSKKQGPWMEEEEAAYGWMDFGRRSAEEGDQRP
The assay is described as follows: ELISA; supernatant 1:2000 on 2 ug/ml dProgastrin-Sumo. As to the method:
Deep well ELISA reading of 46 different monoclonal antibodies against 2 μg/ml dProgastrin-Sumo protein antigen versus 2 μg/ml anti rabbit antibodies. Supernatants containing the antibodies were diluted at 1:2000. […] Monoclonal antibodies with strong specificities against the dProgastrin C terminus at low concentrations include the D6 mAb, A3 mAb, and F4 mAb, among others.
On the technique in general: ELISA stands for enzyme-linked immunosorbent assay.

B1: dProg-2-D6 mAb (antibody, V domains shown)
VH: QSVKESEGGLFKPTEPLTLTCTVSGFSLSSDNMGWVRQTPGKQLEWIGWIGSSGSAYYARWAKSRSTITRNTNENTVTLKMTSLTAADTATYFCARSGWGSFDIWGPGTLVTVSS
VL: AQVLTQTPSPVSAAVGSTVTISCQSSQSVYSNNRLAWFQQKPGQPPKLLIYLASTLASGVPSRFKGSGSGTQFTLTISEVQCDDAATYYCQGYYSGYIFGFGGGTEVVVKG
notes: Recombinant rabbit monoclonal antibody; also called D6 mAb (C terminus); dprogastrin-2_D6
In the case of B1, the OD came out at 2.02 OD.

B2: dProg-2-F4 mAb (antibody, V domains shown)
VH: QSVEESRGGLFKPTEPLTLTCTASGFTISSYHMGWVRQTPGKQLEWIGWIGSSGATYYASWATSRSTITRNTNDNTVTLKMTSLTAADTATYFCARSGWGSFDIWGPGALVTVSS
VL: B1 VL with S9A, P10S, S17G, S22N, S31N, N33D, S78G, G92S, S95N
notes: Recombinant rabbit monoclonal antibody; same entries as dProg-2-A3; also called dprogastrin-2_F4
As for B2, the OD amounted to 1.99 OD.

B3: dProg-2-A3 mAb (antibody, V domains shown)
VH: B2 VH
VL: B1 VL with S9A, P10S, S17G, S22N, S31N, N33D, S78G, G92S, S95N
notes: Recombinant rabbit monoclonal antibody; same entries as dProg-2-F4; Biotinylated when used for detection; also called dprogastrin-2_A3 mAb
As for B3, the OD was 2.19 OD.
